These substances were tested on HEK293T (assay: median enrichment of reporter reads in eGFP-reduced (low/intermediate) vs eGFP-high sorted cells (eGFP-extension fusion abundance) (ratio); higher = stronger loss of eGFP-fusion protein abundance (more destabilising extension)).
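Further: lentiviral eGFP-IRES-mCherry reporter pool sorted by FACS 96 h post-transduction, gated on mCherry-high cells, Illumina read counts normalized per million, median across four biological replicates.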

Substance	median enrichment
GAHPKYACHLRPQAGHTGQPACRQDLPASSSQYSLQRLKCEAPAPPSALQPTGPGRTCPLSVSPSRVPRWRPLSTG [PAK6]	3.28
GAMLPSSSSPPSTGWDRRQVPAHACLRLFPPLGQALGWKLGS [ADCYAP1R1]	9.03
GANASRAAVNLCKD [BDKRB2]	0.298
GAPPPGWTGAWLPSSFLPWLPEETPLTQPAWALTTNTLGHGQPAQDRLPALGHCAPISVLGLGSS [TTYH1]	15.2
GCGLNCRLTK [MYO16]	0.777
GCM [BET1]	0.417
GCVLSQIYLLD [HYPK]	11.9
GEKSYKCKECGKPLDDPQTLMNMRKFIL [ZNF141]	6.09
GEVLPGPRRGDREHHCHPGEPGAGAPGACRLRQGRCGRDDAALGCGVGSPKHPRQQPRPWPHQWHRGAPATGWPSGQPEHQGH [DECR2]	0.598
GFHSRGCCKQRDCHLELGWQGRAASFDSESSCPSPKPPPTP [SYT6]	0.961
GGAAAAWSLRPSRPPSAAPSAAVCVAWASFQLTHGLKNRCFI [TMEM18]	5.44
GGAVAANTPASGLLVAAPGDTPAKPTRWRGPPWSLATLPASAQGPLPSPGHLLCRRHSSQKPLSQKRLVFKKSRFFAPEVSFR [AP1M1]	5.45
GGCRRRPSWCRQAGHRDPGPAQETAFFSRYNRRQKKRVPPLPNRSFWQGVPNAKTQRCGWHLLPHSFKIVKKC [FOXF1]	9.48
GGEERRADLGRALRTWPRARDSPGSSSPWQAQQHVPQIWKGLPLCQCLGGCHGCPHPLLSVCGVEEPTPASCQDHLGGHTPAK [GPRC5C]	0.687
GGFFC [GBP7]	0.518
GGG [Gly03]	1.62
GGGG [Gly04]	5.17
GGGGG [Gly05]	1.79
GGGGGG [Gly06]	2.43
GGGGGGG [Gly07]	2.97
GGGGGGGG [Gly08]	1.64

Substance	median enrichment
GGGGGGGGG [Gly09]	3.85
GGGGGGGGGG [Gly10]	11.7
GGGGQVTRSGLSFWGCRSTEPLTPVCPRSPNRCGSSSERLSVQAMGQDRKVPELGKPGCNFLLHPAPPEVLRRVFLGIVFCSC [JUP]	5.66
GGGSRSDQLIAHMLCLDME [HNRNPAB]	3.08
GGGTGLTF [CARS]	0.299
GGLLALTLQPTLAVWPSPGSFPAPLPLFPVLLNSPSWRVQALGMGGTRPHSFHRALRPDTADQPHSAQEAASGVGAQRGTAAS [BAP1]	5.39
GGLLPLGPLTLSGWWTTKYNPVYNLKIYFTFVLLYLFIKG [SMAD4]	5.18
GGLLSVLGTPGPYRTRAAALSHPLGRRYGSSVPLASMWSGGDAAPVVGTSWGDPRPSLAGLSPVPISHSGPRADILIK [GUK1]	2.98
GGPMGMSMAQPSYTPPQMTPHPTQLRHGPPMHSYLPSHPHHPAMMMHGGPPTHPGMTMSAQSPTMLNSVDPNVGGQVMDIHAQ [MEIS2]	2.36
GGPSV [NDUFV3]	0.139
GGQCLPAPPLASSSAPRVPSVDPIRPAMASYSKMV [ACO2]	0.291
GGQVAEGSGCRLLYPLCLKHPPHRALVFTRFVLDSLNGNRIPWLRAKTTTYQCPCPFQLTLSSLRSSLSLWKGHPSQGRNAWS [SLC13A5]	8.48
GGR [RGS21]	0.868
GGRACTGATQPGLGAASPQPPRAKNLFIKECFGTL [LMNA]	17.9
GGRVGHPKR [ZNF786]	0.607
GGTPEKMPGLIVPPQDMDSMWGQEGYLLPGKAISSSPVWGGMRPAPLVNTPFPRSSLPVLGGS [CIC]	6.48
GHACLPNTIWSWTTFDTNQSYWTRPLEDLKYTSHAVVYLGCDSLSNAALGKDESDLQGEKCNHTWAPVNYGTEGPNCSPKGAA [APOBEC2]	3.91
GHAQAMNPQLSQMADRWSPAPIATCNSEKISLVTDQCHGGAC [SHISA3]	1.98
GHPQDTPMWLLDNPRAAKSCFSSLAPQVLQDRALKATPNEFSGFRLWLQPNRTHFEHPDCIFAFRKLE [C5orf46]	3.29
GHPTPVPWRGSGPTLHNCLSRTVQTKGPAWKE [SLC37A1]	2.83

Reference: the supplement of paper PMC11502859
